Assays:
[1] = system: HUVEC (human umbilical vein endothelial cells); assay: Neutralization test of vascular endothelial cell lumen formation inhibition (Example 14); format: cell-based; conditions: antibody pre-reacted with Glycer-AGEs-BSA; HUVEC, 8 hours
Procedure: Matrigel matrix (Corning Inc.) was placed in a refrigerator and thawed overnight. The thawed Matrigel matrix was added at 300 μL/well to a 12-well plate (Corning Inc.) and hardened by still standing at 37° C. for 1 hour in a CO2 incubator (ESPEC Corp.).
(§1) 10 μL of Glycer-AGEs-BSA (10 mg/mL) prepared in Example 1 or 10 μL of control BSA (10 mg/mL), phosphate-buffered saline (PBS, FUJIFILM Wako Pure Chemical Corp.), and 90 μL of SJ-5 (10 mg/mL) or a control antibody (10 mg/mL) were added to a 1.5 mL tube (Watson) and left standing at room temperature for 10 minutes. Then, a supernatant was recovered by centrifugation at 14000 rpm for 15 minutes using a centrifuge (Thermo Fisher Scientific Inc.).
HUVEC (human umbilical vein endothelial cells, National Institutes of Biomedical Innovation, Health and Nutrition, JCRB cell bank) was cultured in a 10 cm dish (Corning Inc.) using 10 mL of a medium for HUVEC (KAC Co., Ltd.).
The cultured HUVEC was washed with 10 mL of PBS. Then, 1 mL of trypsin-EDTA (FUJIFILM Wako Pure Chemical Corp.) was added thereto and left standing at room temperature for 3 minutes. […]
After the centrifugation, the supernatant was discarded, and precipitated cells were resuspended by the addition of 1 mL of a medium for HUVEC. […] Then, the number of live cells was counted in Auto Cell Counter EVE (NanoEnTek Inc.). […]

HUVEC = assay: Neutralization test of vascular endothelial cell lumen formation inhibition using PB-1 (Example 35); format: cell-based, human; conditions: PB-1 pre-reacted with Glycer-AGEs-BSA; HUVEC, 8 hours
Procedure: Matrigel matrix was prepared by the same operation as in Example 14.
as §1, with “1,” for “1 or”, “of” for “of control BSA (10 mg/mL),”, “the PB-1 antibody” for “SJ-5”
(3) A lumen formation inhibition test was conducted by the same operation as in Example 14. As shown in the drawing, HUVEC was confirmed to form a lumen in the Matrigel matrix in the control BSA addition group. […] Furthermore, this inhibition of lumen formation was neutralized by the reaction solution of PB-1.

A-peak-BSA = A-peak-BSA (Bos taurus, UniProt P02769); assay: Dissociation constant measurement of PB-1, Biacore T200 (Example 26); conditions: Biacore T200, CM5; ligand A-peak-BSA; PB-1 0.1953 to 50 nM; 1:1 binding model
Chain of A-peak-BSA (P02769 25-607): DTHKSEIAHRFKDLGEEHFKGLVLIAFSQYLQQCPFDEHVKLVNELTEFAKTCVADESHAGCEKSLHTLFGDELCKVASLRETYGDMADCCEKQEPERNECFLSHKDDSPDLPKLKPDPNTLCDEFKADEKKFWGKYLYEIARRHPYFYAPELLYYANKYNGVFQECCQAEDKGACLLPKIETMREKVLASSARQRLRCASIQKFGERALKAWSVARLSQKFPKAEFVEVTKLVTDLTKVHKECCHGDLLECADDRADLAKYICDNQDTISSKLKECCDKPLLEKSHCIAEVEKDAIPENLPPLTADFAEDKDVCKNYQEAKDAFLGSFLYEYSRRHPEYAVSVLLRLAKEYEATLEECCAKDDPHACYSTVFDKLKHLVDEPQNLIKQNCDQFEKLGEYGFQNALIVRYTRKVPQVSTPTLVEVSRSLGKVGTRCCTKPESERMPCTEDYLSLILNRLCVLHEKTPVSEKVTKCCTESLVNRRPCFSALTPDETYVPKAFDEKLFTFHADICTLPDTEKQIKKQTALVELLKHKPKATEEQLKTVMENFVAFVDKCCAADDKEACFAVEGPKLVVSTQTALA
Procedure: The dissociation constant (Kd value) of the monoclonal antibody PB-1 was measured by the following approach: A-peak-BSA was diluted with a 10 mM sodium acetate solution (pH 5.0) to prepare a ligand solution with a final concentration of 50 μg/mL. Biacore T200 (GE Healthcare Japan Corp.) was used for the immobilization of the ligand and the calculation of the KD value. The ligand solution was immobilized (final amount immobilized: 72 RU) onto sensor chip CM5 (GE Healthcare Japan Corp.) using an amine coupling kit (GE Healthcare Japan Corp.). Subsequently, PB-1 antibody dilution solutions from 0.1953 to 50 nM were prepared with a running buffer solution HBS-P+ (GE Healthcare Japan Corp.), and a sensorgram was obtained.
1:1 binding was adopted to a fitting model, and the sensorgram was analyzed.

| Kd (A-peak-BSA) [nM] | Molecule | neutralization of lumen formation inhibition by Glycer-AGEs-BSA [1] | neutralization of lumen formation inhibition by Glycer-AGEs-BSA (HUVEC) |
| --- | --- | --- | --- |
| – | SJ-5: mouse monoclonal antibody raised against GAL13-MSA; heavy-chain variable region SEQ ID NO 4, light-chain variable region SEQ ID NO 8 (antibody, listed as Mus musculus, V domains shown) VH: EVMLVESGGRLVKPGGSLKLSCAASGFTFSSYGMSWVRQTPEKRLEWVATISGGGSYTYYPDSVKGRFTISRDNVKNNLYLQMSSLRSEDTALYYCARRGAYGDYGWFAYWGQGTLVTVSA VL: DIVLTQSPATLSVTPGDSVSLSCRASQSINNNLHWYQQKSHESPRLLIKCASQSISGIPSRFSGSGSGTDFTLSINSVETEDFGMYFCQQSNSWPLTFGAGTKLELK | neutralized | – |
| 4.15 | PB-1: mouse monoclonal antibody raised against A-peak-BSA; heavy-chain variable region SEQ ID NO 18, light-chain variable region SEQ ID NO 22 (antibody, listed as Mus musculus, V domains shown) VH: EVRLQQSGPELVKPGTSVKISCKASGYSFTGYYMHWVKQSPVKSLEWIGRIIPYNGATSYNQNFKDKASLTVDKSSRTAYMDLHSLTSEDSAVYYCARSRYYGRAPYYFDYWGQGTTLTVSS VL: DVVVTQTPLSLPVSLGDQASISCRSSQSIVHSNGNTYLEWYLQKPGQSPKLLIYKVSNRFSGVPDRISGSGSGTDFTLKISRVEAGDLGVYSCFQGSHVPFTFGSGTKLEIK | – | neutralized |

From patent US12391751B2, “Antibody against advanced glycation end products and use thereof” (Bloom Technology Corporation, priority 2018, dated 2025)
